Results as given in US20230331798A1 (JECHO LABORATORIES, published 2023).

How the values were obtained:
[1] = molecular target: EPO receptor (Sinobiological, 10707-H08H) (UniProt P19235); assay: SPR, Biacore 8K, 25 C
[2] = molecular target: T1, EPO receptor on TF-1 cells (human, UniProt P19235 25-508); assay: cell-based or functional assay
T1 sequence (looked up): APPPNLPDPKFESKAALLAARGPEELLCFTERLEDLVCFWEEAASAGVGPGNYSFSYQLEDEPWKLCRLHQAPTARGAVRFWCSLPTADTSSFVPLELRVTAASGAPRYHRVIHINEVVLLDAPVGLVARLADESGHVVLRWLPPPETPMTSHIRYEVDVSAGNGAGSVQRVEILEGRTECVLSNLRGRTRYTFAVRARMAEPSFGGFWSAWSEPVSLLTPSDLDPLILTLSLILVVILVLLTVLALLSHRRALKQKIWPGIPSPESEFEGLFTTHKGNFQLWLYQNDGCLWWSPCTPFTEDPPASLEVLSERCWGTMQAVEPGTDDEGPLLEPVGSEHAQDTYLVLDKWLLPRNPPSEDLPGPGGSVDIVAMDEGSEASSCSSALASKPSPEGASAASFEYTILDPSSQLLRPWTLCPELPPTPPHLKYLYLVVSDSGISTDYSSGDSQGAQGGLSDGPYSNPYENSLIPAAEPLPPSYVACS

In the case of “Darbepoetin (Darbe, lot #1078765A) (ligand)”, the Kd [1] is reported as 8.35 nM and the EC50 (ng/ml), TF-1 cell proliferation (MTS, absorbance at 490 nM) [2] is reported as 11.4 ng/mL.
